From the supplement of paper PMC9112550, “Optimization of the antimicrobial peptide Bac7 by deep mutational scanning” (BMC Biology, 2022)

system: Escherichia coli TOP10; test: shrunken log2 fold change of peptide-encoding DNA abundance (4.5 h post-induction vs induction); higher = less antimicrobial activity (less host growth inhibition); conditions: time post-induction: 4.5 h; library: site-saturation at positions 5, 18, 19, 20
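Also: peptides expressed intracellularly from a pBAD plasmid library in pooled LB shake-flask culture, induced with 0.3% L-arabinose, DNA abundance read by NGS, three biological replicates, DESeq2 with apeglm shrinkage.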

| Sequence | shrunken log2 fold change |
| --- | --- |
| RRIRTRPPRLPRPRPRPPPMPRP | 0.54 |
| RRIRDRPPRLPRPRPRPGCMPRP | 0.206 |
| RRIRYRPPRLPRPRPRPSRIPRP | 0.0535 |
| RRIRARPPRLPRPRPRPQCYPRP | -0.0761 |
| RRIRQRPPRLPRPRPRPIMFPRP | -0.144 |
| RRIRKRPPRLPRPRPRPIKQPRP | -0.089 |
| RRIRPRPPRLPRPRPRPAHTPRP | -0.0311 |
| RRIRIRPPRLPRPRPRPARQPRP | -0.0037 |
| RRIRQRPPRLPRPRPRPKDQPRP | 0.0983 |
| RRIRKRPPRLPRPRPRPQVGPRP | 0.0646 |
| RRIRSRPPRLPRPRPRPLPNPRP | -0.215 |
| RRIRERPPRLPRPRPRPDKCPRP | -0.121 |
| RRIRIRPPRLPRPRPRPTLAPRP | 0.236 |
| RRIRLRPPRLPRPRPRPFTVPRP | 0.0023 |
| RRIRQRPPRLPRPRPRPVVFPRP | 1.25 |
| RRIRCRPPRLPRPRPRPYRYPRP | -0.262 |
| RRIRTRPPRLPRPRPRPEWLPRP | 0.203 |
| RRIRHRPPRLPRPRPRPFKKPRP | -0.00783 |
| RRIRGRPPRLPRPRPRPDAAPRP | 3.73 |
| RRIRKRPPRLPRPRPRPNREPRP | 0.0158 |
| RRIRDRPPRLPRPRPRPLWTPRP | 0.163 |
| RRIRVRPPRLPRPRPRPMCTPRP | -0.0103 |
| RRIRDRPPRLPRPRPRPHQHPRP | -0.308 |
| RRIRTRPPRLPRPRPRPLWCPRP | -0.0967 |
| RRIRYRPPRLPRPRPRPKHHPRP | -0.986 |

| Sequence | shrunken log2 fold change |
| --- | --- |
| RRIRCRPPRLPRPRPRPTVWPRP | 0.553 |
| RRIRERPPRLPRPRPRPMKWPRP | -0.0404 |
| RRIRWRPPRLPRPRPRPDMQPRP | 0.337 |
| RRIRCRPPRLPRPRPRPEGKPRP | 0.31 |
| RRIRFRPPRLPRPRPRPMSTPRP | -0.386 |
| RRIRWRPPRLPRPRPRPRFLPRP | 0.0174 |
| RRIRIRPPRLPRPRPRPKMCPRP | 0.168 |
| RRIRKRPPRLPRPRPRPIFEPRP | 0.381 |
| RRIRWRPPRLPRPRPRPTKGPRP | 0.469 |
| RRIRHRPPRLPRPRPRPPLEPRP | 0.223 |
| RRIRRRPPRLPRPRPRPMCHPRP | -0.191 |
| RRIRHRPPRLPRPRPRPDWVPRP | -0.0196 |
| RRIRLRPPRLPRPRPRPDTYPRP | -0.93 |
| RRIRDRPPRLPRPRPRPVRGPRP | 1 |
| RRIRFRPPRLPRPRPRPEDMPRP | 0.000714 |
| RRIRWRPPRLPRPRPRPLRFPRP | 0.399 |
| RRIRYRPPRLPRPRPRPDRHPRP | -0.189 |
| RRIRPRPPRLPRPRPRPWHKPRP | -0.29 |
| RRIRMRPPRLPRPRPRPHVDPRP | 0.51 |
| RRIRLRPPRLPRPRPRPPLAPRP | 0.519 |
| RRIRMRPPRLPRPRPRPDLQPRP | 0.461 |
| RRIRARPPRLPRPRPRPWPIPRP | 0.179 |
| RRIRQRPPRLPRPRPRPFVTPRP | -1.13 |
| RRIRPRPPRLPRPRPRPGQLPRP | -0.0604 |
| RRIRARPPRLPRPRPRPPGVPRP | 0.158 |

| Sequence | shrunken log2 fold change |
| --- | --- |
| RRIRGRPPRLPRPRPRPYDVPRP | -0.00115 |
| RRIRKRPPRLPRPRPRPGSHPRP | 0.0202 |
| RRIRTRPPRLPRPRPRPDTNPRP | -0.558 |
| RRIRIRPPRLPRPRPRPGCDPRP | 0.0474 |
| RRIRSRPPRLPRPRPRPLYGPRP | -0.565 |
| RRIRHRPPRLPRPRPRPGRTPRP | 0.208 |
| RRIRHRPPRLPRPRPRPQCDPRP | -0.13 |
| RRIRCRPPRLPRPRPRPWLTPRP | -0.117 |
| RRIRVRPPRLPRPRPRPQFLPRP | 0.052 |
| RRIRYRPPRLPRPRPRPAVIPRP | -0.0517 |
| RRIRCRPPRLPRPRPRPKDVPRP | 0.015 |
| RRIRGRPPRLPRPRPRPVWEPRP | 0.761 |
| RRIRCRPPRLPRPRPRPQDNPRP | -0.285 |
| RRIRARPPRLPRPRPRPHKMPRP | 0.118 |
| RRIRSRPPRLPRPRPRPWRRPRP | 0.0927 |
| RRIRKRPPRLPRPRPRPILDPRP | 0.15 |
| RRIRQRPPRLPRPRPRPIFHPRP | -0.176 |
| RRIRPRPPRLPRPRPRPLKSPRP | -0.157 |
| RRIRCRPPRLPRPRPRPWISPRP | -0.085 |
| RRIRARPPRLPRPRPRPKVGPRP | 0.284 |
| RRIRARPPRLPRPRPRPGTWPRP | 0.161 |
| RRIRVRPPRLPRPRPRPAVSPRP | 0.0786 |
| RRIRIRPPRLPRPRPRPHSIPRP | -0.933 |
| RRIRVRPPRLPRPRPRPIAHPRP | -0.126 |
| RRIRARPPRLPRPRPRPEDFPRP | 1.11 |

| Sequence | shrunken log2 fold change |
| --- | --- |
| RRIRIRPPRLPRPRPRPRKHPRP | -0.252 |
| RRIRLRPPRLPRPRPRPESEPRP | -0.000997 |
| RRIRERPPRLPRPRPRPPSPPRP | -0.0326 |
| RRIRTRPPRLPRPRPRPDAVPRP | 0.171 |
| RRIRYRPPRLPRPRPRPEMNPRP | -0.0274 |
| RRIRFRPPRLPRPRPRPTRAPRP | 0.825 |
| RRIRGRPPRLPRPRPRPCEEPRP | 0.742 |
| RRIRNRPPRLPRPRPRPWRWPRP | 0.0867 |
| RRIRSRPPRLPRPRPRPQFCPRP | -0.16 |
| RRIRFRPPRLPRPRPRPLCNPRP | -0.398 |
| RRIRPRPPRLPRPRPRPQDWPRP | 0.0908 |
| RRIRERPPRLPRPRPRPDNFPRP | 0.00707 |
| RRIRERPPRLPRPRPRPHHRPRP | -0.145 |
| RRIRPRPPRLPRPRPRPKCWPRP | 0.765 |
| RRIRCRPPRLPRPRPRPHRFPRP | -0.0713 |
| RRIRFRPPRLPRPRPRPVSGPRP | -0.0636 |
| RRIRTRPPRLPRPRPRPDVLPRP | -0.208 |
| RRIRCRPPRLPRPRPRPGRAPRP | 0.453 |
| RRIRARPPRLPRPRPRPKAYPRP | 0.088 |
| RRIRCRPPRLPRPRPRPNVWPRP | 0.0481 |
| RRIRPRPPRLPRPRPRPMYAPRP | -0.302 |
| RRIRTRPPRLPRPRPRPPTVPRP | 0.44 |
| RRIRLRPPRLPRPRPRPPEMPRP | 1.71 |
| RRIRLRPPRLPRPRPRPSCNPRP | -0.661 |
| RRIRVRPPRLPRPRPRPYYWPRP | -0.0974 |

| Sequence | shrunken log2 fold change |
| --- | --- |
| RRIRRRPPRLPRPRPRPIFRPRP | 0.584 |
| RRIRGRPPRLPRPRPRPEGKPRP | 0.574 |
| RRIRRRPPRLPRPRPRPAARPRP | 0.287 |
| RRIRKRPPRLPRPRPRPTFRPRP | 0.527 |
| RRIRCRPPRLPRPRPRPAMWPRP | 0.295 |
| RRIRVRPPRLPRPRPRPKGFPRP | -0.00211 |
| RRIRMRPPRLPRPRPRPQARPRP | 0.575 |
| RRIRHRPPRLPRPRPRPAKCPRP | -0.0799 |
| RRIRERPPRLPRPRPRPPYSPRP | -0.102 |
| RRIRFRPPRLPRPRPRPNWFPRP | 0.0383 |
| RRIRRRPPRLPRPRPRPGQAPRP | 0.0103 |
| RRIRVRPPRLPRPRPRPMLWPRP | 0.0613 |
| RRIRDRPPRLPRPRPRPLGVPRP | 0.577 |
| RRIRSRPPRLPRPRPRPNVDPRP | 0.0085 |
| RRIRDRPPRLPRPRPRPITWPRP | 0.098 |
| RRIRWRPPRLPRPRPRPRCFPRP | 0.398 |
| RRIRGRPPRLPRPRPRPQDLPRP | -0.00287 |
| RRIRARPPRLPRPRPRPNWCPRP | 0.206 |
| RRIRYRPPRLPRPRPRPADHPRP | -0.0872 |
| RRIRIRPPRLPRPRPRPWNGPRP | -0.172 |
| RRIRERPPRLPRPRPRPVRTPRP | 0.496 |
| RRIRVRPPRLPRPRPRPAAKPRP | 0.348 |
| RRIRFRPPRLPRPRPRPNVDPRP | -0.0445 |
| RRIRKRPPRLPRPRPRPDIEPRP | 2.53 |
| RRIRTRPPRLPRPRPRPVPIPRP | -0.0974 |

| Sequence | shrunken log2 fold change |
| --- | --- |
| RRIRYRPPRLPRPRPRPKAGPRP | -0.118 |
| RRIRKRPPRLPRPRPRPYADPRP | -0.0355 |
| RRIRNRPPRLPRPRPRPCLAPRP | -0.69 |
| RRIRWRPPRLPRPRPRPNIKPRP | -0.384 |
| RRIRSRPPRLPRPRPRPHKVPRP | -0.259 |
| RRIRIRPPRLPRPRPRPNPTPRP | -0.17 |
| RRIRARPPRLPRPRPRPFISPRP | 0.112 |
| RRIRRRPPRLPRPRPRPYLAPRP | -0.185 |
| RRIRCRPPRLPRPRPRPGGKPRP | -0.0361 |
| RRIRSRPPRLPRPRPRPWYLPRP | -0.617 |
| RRIRPRPPRLPRPRPRPFGLPRP | -0.209 |
| RRIRGRPPRLPRPRPRPDNLPRP | -0.226 |
| RRIRCRPPRLPRPRPRPLDLPRP | -0.0926 |
| RRIRPRPPRLPRPRPRPNGYPRP | -0.224 |
| RRIRKRPPRLPRPRPRPDYFPRP | 0.0333 |
| RRIRVRPPRLPRPRPRPYYMPRP | -0.997 |
| RRIRNRPPRLPRPRPRPNTNPRP | -0.59 |
| RRIRLRPPRLPRPRPRPASAPRP | 0.202 |
| RRIRIRPPRLPRPRPRPRMKPRP | -0.0587 |
| RRIRKRPPRLPRPRPRPSDCPRP | -0.00471 |
| RRIRFRPPRLPRPRPRPAKLPRP | -0.263 |
| RRIRCRPPRLPRPRPRPSHHPRP | -0.603 |
| RRIRSRPPRLPRPRPRPQWGPRP | -0.0633 |
| RRIRVRPPRLPRPRPRPCSEPRP | -0.128 |
| RRIRQRPPRLPRPRPRPNITPRP | -0.495 |
